From patent US20170158755A1 (PROTHENA BIOSCIENCES, published 2017)

T1: human LAMA4 LG4-5 modules displayed on 293 cells (human, UniProt Q16363 1453-1821)
T1 construct: pDisplay construct on 293 cells; vector tags and anchor not written here
T1 sequence: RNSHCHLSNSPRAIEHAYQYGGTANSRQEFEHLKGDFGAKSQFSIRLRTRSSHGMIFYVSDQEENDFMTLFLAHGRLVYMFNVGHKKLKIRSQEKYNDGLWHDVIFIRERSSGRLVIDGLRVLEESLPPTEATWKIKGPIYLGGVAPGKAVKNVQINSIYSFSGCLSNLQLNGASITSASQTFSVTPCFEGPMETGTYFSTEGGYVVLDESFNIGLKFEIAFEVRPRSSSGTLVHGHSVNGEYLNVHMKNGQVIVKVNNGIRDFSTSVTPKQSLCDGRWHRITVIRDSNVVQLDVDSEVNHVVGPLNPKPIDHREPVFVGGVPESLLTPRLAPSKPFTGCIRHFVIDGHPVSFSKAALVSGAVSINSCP

T2: human LAMA4 LG1-3 modules displayed on 293 cells (human, UniProt Q16363 830-1430)
T2 construct: pDisplay construct on 293 cells; vector tags and anchor not written here
T2 sequence: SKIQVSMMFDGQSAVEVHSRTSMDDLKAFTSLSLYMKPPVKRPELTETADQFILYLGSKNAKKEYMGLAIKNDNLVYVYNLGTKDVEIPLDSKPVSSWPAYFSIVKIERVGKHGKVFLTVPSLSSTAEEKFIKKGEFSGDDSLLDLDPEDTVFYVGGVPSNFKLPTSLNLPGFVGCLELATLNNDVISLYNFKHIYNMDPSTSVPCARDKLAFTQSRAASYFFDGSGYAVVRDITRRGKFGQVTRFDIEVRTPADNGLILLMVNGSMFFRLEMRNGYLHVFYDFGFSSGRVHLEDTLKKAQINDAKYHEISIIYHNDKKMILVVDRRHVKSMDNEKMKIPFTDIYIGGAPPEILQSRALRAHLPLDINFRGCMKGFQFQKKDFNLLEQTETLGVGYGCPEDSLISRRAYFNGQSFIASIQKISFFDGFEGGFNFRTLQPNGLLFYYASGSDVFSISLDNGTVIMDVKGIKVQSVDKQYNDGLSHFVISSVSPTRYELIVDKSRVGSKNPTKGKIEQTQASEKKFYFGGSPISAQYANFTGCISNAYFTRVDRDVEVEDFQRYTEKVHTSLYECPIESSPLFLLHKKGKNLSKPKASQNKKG

T3: human LAMA4 G domain (LG1-5) displayed on 293 cells (human, UniProt Q16363 830-1821)
T3 construct: the vector's tags and membrane anchor are not written here; also called LAMA4-displaying human 293 cells; full length
T3 sequence: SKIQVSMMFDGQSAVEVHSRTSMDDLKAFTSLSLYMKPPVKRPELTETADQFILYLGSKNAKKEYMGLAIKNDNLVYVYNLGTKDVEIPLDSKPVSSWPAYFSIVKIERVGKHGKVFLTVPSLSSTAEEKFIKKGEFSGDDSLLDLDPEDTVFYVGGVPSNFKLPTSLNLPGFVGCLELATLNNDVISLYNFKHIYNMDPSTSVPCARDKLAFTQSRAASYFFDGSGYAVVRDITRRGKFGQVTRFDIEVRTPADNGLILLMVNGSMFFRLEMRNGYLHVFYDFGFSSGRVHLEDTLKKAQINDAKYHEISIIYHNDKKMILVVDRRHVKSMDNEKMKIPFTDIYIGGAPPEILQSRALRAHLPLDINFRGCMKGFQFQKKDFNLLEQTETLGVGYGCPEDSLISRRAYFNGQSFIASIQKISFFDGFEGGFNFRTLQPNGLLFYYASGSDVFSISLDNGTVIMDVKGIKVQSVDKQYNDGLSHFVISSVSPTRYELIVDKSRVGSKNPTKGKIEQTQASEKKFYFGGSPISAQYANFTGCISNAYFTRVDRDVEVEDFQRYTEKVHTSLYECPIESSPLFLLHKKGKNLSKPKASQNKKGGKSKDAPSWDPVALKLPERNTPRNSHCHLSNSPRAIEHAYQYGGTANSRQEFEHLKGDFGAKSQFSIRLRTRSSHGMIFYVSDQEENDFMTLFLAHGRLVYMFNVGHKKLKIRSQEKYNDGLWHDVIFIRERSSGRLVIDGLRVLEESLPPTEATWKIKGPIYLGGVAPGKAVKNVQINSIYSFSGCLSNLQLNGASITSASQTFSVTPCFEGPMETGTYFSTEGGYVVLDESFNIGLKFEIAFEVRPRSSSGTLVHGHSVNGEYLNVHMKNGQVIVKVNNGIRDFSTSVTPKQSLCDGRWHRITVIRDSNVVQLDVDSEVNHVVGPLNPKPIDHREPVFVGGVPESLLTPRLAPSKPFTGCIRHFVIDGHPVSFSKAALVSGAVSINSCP

T4: human His-laminin-α4 (human, UniProt Q16363 833-1823, limits assumed)
T4 construct: Bought His-tagged recombinant protein (R & D Systems); also called Human LAMA4; human His-laminin-α4 (R & D Systems)
T4 sequence: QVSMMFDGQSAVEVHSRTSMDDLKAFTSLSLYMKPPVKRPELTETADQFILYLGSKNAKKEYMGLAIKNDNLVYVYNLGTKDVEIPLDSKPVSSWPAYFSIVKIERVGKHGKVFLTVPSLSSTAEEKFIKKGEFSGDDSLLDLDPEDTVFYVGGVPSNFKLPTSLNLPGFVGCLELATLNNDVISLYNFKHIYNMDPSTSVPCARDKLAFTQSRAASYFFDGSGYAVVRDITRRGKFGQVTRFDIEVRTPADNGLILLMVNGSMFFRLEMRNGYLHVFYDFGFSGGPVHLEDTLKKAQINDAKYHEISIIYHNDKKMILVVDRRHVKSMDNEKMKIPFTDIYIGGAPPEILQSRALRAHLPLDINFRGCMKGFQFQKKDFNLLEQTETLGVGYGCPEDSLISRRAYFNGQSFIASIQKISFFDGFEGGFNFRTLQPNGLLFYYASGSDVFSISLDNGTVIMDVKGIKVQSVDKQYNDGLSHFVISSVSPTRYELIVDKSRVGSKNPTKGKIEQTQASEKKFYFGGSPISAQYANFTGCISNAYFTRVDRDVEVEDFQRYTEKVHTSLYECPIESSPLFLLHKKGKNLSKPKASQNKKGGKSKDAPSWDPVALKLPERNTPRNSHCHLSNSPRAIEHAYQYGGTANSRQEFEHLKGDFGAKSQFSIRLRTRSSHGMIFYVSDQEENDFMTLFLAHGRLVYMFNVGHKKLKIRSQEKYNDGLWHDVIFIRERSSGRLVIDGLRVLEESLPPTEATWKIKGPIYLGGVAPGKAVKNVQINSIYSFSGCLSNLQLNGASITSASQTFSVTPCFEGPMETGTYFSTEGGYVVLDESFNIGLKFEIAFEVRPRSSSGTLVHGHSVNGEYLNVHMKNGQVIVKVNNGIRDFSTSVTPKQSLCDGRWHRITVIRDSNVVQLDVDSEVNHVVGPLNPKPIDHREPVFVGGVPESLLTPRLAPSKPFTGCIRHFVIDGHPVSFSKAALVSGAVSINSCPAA

T5: mouse His-laminin-α4 (mouse, UniProt P97927 826-1816, limits assumed)
T5 construct: Bought His-tagged recombinant protein; also called Murine LAMA4; recombinant mouse LAMA4-His
T5 sequence (looked up): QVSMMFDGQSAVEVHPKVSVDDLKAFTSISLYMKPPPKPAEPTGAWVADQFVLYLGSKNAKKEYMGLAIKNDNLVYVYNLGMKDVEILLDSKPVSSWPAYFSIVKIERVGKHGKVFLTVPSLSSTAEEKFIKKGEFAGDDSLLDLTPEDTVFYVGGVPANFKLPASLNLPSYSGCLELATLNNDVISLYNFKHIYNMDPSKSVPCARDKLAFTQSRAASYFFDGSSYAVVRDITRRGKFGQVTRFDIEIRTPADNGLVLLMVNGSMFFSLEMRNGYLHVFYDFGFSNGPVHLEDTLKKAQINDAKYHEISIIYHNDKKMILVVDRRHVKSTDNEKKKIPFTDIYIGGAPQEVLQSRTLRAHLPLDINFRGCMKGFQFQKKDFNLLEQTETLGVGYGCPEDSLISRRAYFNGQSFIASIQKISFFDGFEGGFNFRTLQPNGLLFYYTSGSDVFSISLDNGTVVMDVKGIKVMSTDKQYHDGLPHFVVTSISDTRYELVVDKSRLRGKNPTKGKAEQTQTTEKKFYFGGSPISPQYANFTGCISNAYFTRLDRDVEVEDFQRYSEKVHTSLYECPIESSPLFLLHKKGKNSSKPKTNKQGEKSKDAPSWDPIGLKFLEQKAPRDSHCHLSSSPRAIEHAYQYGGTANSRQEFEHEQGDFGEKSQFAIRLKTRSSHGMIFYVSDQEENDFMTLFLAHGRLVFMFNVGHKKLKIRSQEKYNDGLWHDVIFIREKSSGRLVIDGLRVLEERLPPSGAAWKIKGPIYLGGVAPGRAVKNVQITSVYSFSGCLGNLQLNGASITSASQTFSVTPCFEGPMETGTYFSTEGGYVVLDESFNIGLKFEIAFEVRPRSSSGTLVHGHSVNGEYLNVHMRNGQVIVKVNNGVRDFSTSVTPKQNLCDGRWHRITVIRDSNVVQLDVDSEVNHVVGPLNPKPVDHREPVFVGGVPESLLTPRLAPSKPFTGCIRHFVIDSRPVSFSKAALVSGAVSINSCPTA


What was measured:
recombinant laminin 411 [1] = target: T6, recombinant laminin 411 (human, UniProt P07942 22-1786; P11047 34-1609, limits assumed); assay: flow cytometric blocking assay; antibody pre-incubated with 650-labeled laminin 411; blocked partner: human MCAM on CHO cells; MFI
T6 construct: also called LAMA4 in complex with its gamma1 and beta1 chains
Protocol: (§1) The 19C12 variants chimeric 19C12, H1+chiL, and H2+chiL, and buffer alone were tested for their ability to block the binding of LAMA4 to its ligand MCAM (as shown in FIG. 11) and to bind LAMA4-displaying cells (full length, LG1-3, LG4-5, or untransfected control) (as shown in FIG. 12). […] To test LAMA4 binding capacity, serially diluted antibodies were pre-incubated with LAMA4-displaying human 293 cells, followed by anti-human-650 secondary antibody incubation. Fluorescent signal was assessed via flow cytometric analyses and plotted as mean fluorescence intensity (MFI).
(§2) Following two washes with FACS buffer (1% FBS in PBS), cells were resuspended with 650-conjugated anti-pan-laminin antibody (1:1000; Novus Biologicals) and incubated for 20 min at 4° C., and washed again. Cells were analyzed for pan-laminin reactivity by flow cytometry using standard procedures.
Target sequence in this assay (chain, as listed by the source limits assumed, chain 1 of 3): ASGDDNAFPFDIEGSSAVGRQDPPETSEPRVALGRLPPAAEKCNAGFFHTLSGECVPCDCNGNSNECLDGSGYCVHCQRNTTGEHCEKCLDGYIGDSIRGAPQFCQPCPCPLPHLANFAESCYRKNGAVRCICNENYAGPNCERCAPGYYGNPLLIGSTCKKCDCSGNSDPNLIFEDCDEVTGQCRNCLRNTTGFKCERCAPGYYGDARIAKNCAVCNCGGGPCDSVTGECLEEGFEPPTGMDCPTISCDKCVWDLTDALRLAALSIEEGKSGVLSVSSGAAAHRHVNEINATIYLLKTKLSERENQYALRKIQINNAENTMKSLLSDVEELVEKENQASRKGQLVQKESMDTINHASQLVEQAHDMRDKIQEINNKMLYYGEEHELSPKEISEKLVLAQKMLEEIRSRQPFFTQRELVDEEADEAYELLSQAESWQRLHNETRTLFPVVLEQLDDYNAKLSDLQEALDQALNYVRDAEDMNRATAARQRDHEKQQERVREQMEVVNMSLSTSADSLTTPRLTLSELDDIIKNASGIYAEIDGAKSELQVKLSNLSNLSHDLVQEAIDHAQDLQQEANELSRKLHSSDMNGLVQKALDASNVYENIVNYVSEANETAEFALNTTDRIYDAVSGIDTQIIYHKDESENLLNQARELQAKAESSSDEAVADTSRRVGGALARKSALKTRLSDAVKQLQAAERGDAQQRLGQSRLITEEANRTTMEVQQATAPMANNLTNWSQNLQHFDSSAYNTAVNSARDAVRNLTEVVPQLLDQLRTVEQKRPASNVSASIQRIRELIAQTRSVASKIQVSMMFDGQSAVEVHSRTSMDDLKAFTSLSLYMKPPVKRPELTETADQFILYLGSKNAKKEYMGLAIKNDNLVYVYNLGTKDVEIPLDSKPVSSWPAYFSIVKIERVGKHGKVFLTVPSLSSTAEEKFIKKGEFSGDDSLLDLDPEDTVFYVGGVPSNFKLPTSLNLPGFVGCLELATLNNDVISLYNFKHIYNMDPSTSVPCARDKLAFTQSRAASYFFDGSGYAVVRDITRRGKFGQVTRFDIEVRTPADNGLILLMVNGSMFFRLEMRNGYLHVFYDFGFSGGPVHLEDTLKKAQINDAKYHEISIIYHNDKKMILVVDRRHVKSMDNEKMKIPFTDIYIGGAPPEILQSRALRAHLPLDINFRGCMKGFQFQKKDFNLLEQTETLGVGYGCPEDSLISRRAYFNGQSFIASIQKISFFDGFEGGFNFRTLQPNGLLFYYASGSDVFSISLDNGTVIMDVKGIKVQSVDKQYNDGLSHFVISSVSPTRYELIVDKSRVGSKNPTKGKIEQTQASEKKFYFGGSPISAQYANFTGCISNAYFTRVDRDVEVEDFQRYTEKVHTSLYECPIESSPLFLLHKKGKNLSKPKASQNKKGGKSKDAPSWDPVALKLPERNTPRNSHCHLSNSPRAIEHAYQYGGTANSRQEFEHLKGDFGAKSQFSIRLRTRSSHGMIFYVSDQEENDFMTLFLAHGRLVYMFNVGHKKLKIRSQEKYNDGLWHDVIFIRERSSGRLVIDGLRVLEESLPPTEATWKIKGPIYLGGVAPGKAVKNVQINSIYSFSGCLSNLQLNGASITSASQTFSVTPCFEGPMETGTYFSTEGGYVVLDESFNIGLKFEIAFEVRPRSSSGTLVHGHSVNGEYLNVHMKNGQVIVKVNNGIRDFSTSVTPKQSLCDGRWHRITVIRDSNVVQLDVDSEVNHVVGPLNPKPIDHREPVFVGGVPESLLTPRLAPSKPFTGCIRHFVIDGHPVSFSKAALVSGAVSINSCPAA
Target sequence in this assay (P07942 22-1786 limits assumed, chain 2 of 3): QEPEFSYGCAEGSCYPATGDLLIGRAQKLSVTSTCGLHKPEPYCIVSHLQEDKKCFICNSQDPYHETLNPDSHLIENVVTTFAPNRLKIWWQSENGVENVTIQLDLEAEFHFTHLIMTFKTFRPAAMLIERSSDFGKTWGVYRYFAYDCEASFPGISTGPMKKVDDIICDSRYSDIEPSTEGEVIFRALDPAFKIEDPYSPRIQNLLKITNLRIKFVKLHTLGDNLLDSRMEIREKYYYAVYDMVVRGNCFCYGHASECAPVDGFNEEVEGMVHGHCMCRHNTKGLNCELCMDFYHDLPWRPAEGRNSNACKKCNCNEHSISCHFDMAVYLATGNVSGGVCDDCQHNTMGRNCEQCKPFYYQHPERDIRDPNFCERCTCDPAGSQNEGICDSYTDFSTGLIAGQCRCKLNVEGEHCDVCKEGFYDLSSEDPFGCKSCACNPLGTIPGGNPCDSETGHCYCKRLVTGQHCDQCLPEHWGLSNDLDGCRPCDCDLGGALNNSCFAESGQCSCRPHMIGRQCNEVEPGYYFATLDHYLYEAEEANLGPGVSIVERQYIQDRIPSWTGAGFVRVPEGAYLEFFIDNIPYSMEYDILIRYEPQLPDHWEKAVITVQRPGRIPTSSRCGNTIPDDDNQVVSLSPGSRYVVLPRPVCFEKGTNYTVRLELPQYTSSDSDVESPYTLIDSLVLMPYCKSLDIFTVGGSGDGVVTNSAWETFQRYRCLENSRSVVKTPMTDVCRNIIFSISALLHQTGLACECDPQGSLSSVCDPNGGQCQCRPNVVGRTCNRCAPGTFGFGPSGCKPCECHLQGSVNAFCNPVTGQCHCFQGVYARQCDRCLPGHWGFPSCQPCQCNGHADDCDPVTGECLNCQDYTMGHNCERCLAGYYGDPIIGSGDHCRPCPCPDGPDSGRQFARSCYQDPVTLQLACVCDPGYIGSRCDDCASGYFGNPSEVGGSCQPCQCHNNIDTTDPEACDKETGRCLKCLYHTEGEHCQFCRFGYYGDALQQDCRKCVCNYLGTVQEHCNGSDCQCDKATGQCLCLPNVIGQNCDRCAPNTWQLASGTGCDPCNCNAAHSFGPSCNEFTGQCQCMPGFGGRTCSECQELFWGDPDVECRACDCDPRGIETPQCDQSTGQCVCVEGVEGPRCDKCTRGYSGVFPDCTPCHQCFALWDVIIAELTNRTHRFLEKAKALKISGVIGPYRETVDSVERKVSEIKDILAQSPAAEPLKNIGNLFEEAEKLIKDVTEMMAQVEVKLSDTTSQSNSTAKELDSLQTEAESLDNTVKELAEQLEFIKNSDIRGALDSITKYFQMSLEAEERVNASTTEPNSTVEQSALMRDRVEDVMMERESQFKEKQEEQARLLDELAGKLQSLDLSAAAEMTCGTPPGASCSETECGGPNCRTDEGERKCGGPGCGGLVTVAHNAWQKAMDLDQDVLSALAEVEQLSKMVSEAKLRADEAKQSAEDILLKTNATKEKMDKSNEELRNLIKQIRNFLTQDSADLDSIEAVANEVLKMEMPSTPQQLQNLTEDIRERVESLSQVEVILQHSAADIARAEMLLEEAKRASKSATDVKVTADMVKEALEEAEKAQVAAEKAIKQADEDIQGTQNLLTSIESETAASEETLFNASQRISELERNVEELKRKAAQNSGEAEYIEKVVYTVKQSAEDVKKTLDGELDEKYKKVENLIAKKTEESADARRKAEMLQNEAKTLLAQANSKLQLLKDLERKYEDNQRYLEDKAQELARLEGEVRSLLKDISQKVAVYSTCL
Target sequence in this assay (P11047 34-1609 limits assumed, chain 3 of 3): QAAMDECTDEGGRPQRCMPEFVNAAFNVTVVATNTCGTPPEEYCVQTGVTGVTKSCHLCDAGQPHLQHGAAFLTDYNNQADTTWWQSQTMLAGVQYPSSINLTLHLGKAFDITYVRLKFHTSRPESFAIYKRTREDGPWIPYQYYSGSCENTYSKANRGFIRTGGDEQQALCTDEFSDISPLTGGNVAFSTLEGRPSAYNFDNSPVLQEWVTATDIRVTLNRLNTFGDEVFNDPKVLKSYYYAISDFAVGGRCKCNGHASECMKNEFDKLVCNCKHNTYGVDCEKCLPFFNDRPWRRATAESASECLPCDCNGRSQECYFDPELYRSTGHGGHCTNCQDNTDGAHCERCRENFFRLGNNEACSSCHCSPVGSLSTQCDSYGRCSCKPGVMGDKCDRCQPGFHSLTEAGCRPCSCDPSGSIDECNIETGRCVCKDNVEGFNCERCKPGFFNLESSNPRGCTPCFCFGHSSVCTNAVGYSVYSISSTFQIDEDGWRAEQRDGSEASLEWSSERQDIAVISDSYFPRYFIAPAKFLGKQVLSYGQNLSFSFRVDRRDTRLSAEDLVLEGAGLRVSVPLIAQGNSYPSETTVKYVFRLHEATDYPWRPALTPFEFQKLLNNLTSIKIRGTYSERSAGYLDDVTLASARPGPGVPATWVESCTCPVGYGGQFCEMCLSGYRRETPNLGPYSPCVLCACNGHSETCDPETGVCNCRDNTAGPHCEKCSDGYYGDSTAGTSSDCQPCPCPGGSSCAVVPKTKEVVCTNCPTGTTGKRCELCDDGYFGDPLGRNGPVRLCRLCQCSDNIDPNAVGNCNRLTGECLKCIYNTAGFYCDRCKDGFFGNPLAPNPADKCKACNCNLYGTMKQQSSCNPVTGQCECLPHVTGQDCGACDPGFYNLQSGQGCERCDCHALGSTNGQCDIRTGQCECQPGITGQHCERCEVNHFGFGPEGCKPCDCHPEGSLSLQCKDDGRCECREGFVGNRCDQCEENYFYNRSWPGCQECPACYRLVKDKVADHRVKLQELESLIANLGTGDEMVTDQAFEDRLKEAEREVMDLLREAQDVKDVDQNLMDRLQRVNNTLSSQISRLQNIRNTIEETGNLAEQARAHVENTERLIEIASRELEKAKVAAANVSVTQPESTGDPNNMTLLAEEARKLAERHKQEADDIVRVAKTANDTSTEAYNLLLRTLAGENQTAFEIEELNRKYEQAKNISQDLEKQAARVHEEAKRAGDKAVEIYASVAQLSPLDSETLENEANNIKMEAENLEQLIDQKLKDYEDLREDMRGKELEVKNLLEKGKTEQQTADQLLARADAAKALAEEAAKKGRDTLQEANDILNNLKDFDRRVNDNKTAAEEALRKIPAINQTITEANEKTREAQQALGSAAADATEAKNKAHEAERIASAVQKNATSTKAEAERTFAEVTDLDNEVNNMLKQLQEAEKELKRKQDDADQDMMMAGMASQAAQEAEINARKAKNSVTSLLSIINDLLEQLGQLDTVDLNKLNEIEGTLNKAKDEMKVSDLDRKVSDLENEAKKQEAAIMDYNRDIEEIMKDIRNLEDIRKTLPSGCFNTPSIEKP

[2] = target: T1, human LAMA4 LG4-5 modules displayed on …; assay: flow cytometry on 293 cells displaying LAMA4 G-domain variants, anti-human-650 secondary antibody; MFI
Protocol: as §1

[3] = target: T2, human LAMA4 LG1-3 modules displayed on …; assay: as above
Protocol: as §1

[4] = target: T3, human LAMA4 G domain (LG1-5) displayed …; assay: as above
Protocol: as §1

human His-laminin-α4 = target: T4, human His-laminin-α4; assay: Biacore SPR
mouse His-laminin-α4 [5] = target: T5, mouse His-laminin-α4; assay: Biacore SPR
recombinant laminin 411 [6] = target: T6, recombinant laminin 411; assay: hMCAM.CHO flow cytometric blocking assay; antibody pre-incubated with laminin 411; blocked partner: human MCAM on CHO cells
Protocol: The monoclonal antibodies against LAMA4 were tested for their ability to block the binding of LAMA4 to its ligand MCAM. IgG control antibody, 1C1, 5Al2, 5B5, 19C12, and 12D3 were pre-incubated with recombinant LAMA4 protein, LAMA4-positive healthy mouse brain tissue, or LAMA4-displaying human 293 cells. […] For the mouse brain tissue blocking assay, antibodies were used at concentrations of 2.5 ug/ml or 0.04 ug/ml.
as §2

mouse His-laminin-α4 [7] = target: T5, mouse His-laminin-α4; assay: ELISA hMCAM-Fc capture blocking assay; antibody pre-incubated with mouse LAMA4-His; blocked partner: captured hMCAM-Fc
[8] = target: T3, human LAMA4 G domain (LG1-5) displayed …; assay: LAMA4 pDisplay flow cytometric blocking assay on LAMA4-displaying 293 cells; blocked ligand: 650-conjugated mouse MCAM-Fc

binding result (recombinant laminin 411 [1])	binding result [2]	binding result [3]	binding result [4]	Kd (human His-laminin-α4) [nM]	koff (human His-laminin-α4) [s⁻¹]	kon (human His-laminin-α4) [M⁻¹ s⁻¹]	Kd (mouse His-laminin-α4 [5]) [nM]	koff (mouse His-laminin-α4 [5]) [s⁻¹]	kon (mouse His-laminin-α4 [5]) [M⁻¹ s⁻¹]	IC50 (read off the curve) (recombinant laminin 411 [6]) [µg/mL]	IC50 (read off the curve) (mouse His-laminin-α4 [7]) [µg/mL]	IC50 (read off the curve) [8] [µg/mL]	Binder
binds	no binding (tested: 5 ug/ml)	binds	binds										19C12 variant H1+ChiL (antibody, V domains shown, Humanized heavy chain version 1 (Hu19C12VHv1) paired with the chimeric light chain; Human constant regions not specified) VH: QVQLQQSGAELVKPGASVKISCKASGYAFSTYWMNWVKQAPGEGLEWIGQIYPGDGDTNYNGKFKGRVTLTADKSTSTAYMELSSLRSEDTAVYFCARSDGYYDYWGQGTTVTVSS VL: NIVLTQSPASLAVSLGQRATISCRASESVDSYGTSFMHWYQQKPGQPPKLLICLASSLESGVPARFSGSGSRTDFTLTIDPVEADDAATYYCQQNNEDPPTFGAGTKLELKR
binds	no binding (tested: 5 ug/ml)	binds	binds										19C12 variant H2+ChiL (antibody, V domains shown, Humanized heavy chain version 2 (Hu19C12VHv2) paired with the chimeric light chain; Human constant regions not specified) VH: QVQLQQSGAELVKPGASVKVSCKASGYAFSTYWMNWVRQAPGQGLEWIGQIYPGDGDTNYNGKFKGRVTITADKSTSTAYMELSSLRSEDTAVYFCARSDGYYDYWGQGTTVTVSS VL: NIVLTQSPASLAVSLGQRATISCRASESVDSYGTSFMHWYQQKPGQPPKLLICLASSLESGVPARFSGSGSRTDFTLTIDPVEADDAATYYCQQNNEDPPTFGAGTKLELKR
				10.9	0.00791	723000	10.3	0.00815	795000	~0.06	~0.2	~0.1	mouse monoclonal antibody 5A12 (antibody, V domains shown, version 1 is written here; also called 5Al2) VH: QVQLQQPGAELVKPGASVKLSCKASGYTFTSYWMHWVKQRPGRGLEWIGRIDPNSGGTKHNEKFKSKATLTVDKPSSTAYMQLSSLTSEDSAVYYCAGSPSYYDYALHYAMDYWGQGTSVTVSS VL: not shown
